Results as given in paper PMC9482650, “Quantitative fragmentomics allow affinity mapping of interactomes” (Nature Communications, 2022).

How the values were obtained:
Assay in all cases: holdup assay
Design in all cases: key: below the threshold = too weak to quantify, mostly under pKd 3.1 to 4
Details in all cases: plain residues with an end cap or a label only (N-terminal biotin on a linker: ado-ado)
[1] = target: PDZRN4_1, Q6ZMN7
[2] = target: PTPN3, P26045
[3] = target: T1, MPP7, Q5T2T1
T1 sequence (Q5T2T1 134-230, limits assumed, looked up): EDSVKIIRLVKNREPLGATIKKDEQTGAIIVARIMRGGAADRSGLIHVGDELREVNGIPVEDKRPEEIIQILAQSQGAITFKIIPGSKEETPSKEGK

[4] = target: Inadl_4, Q8NI35
Chain of Inadl_4, Q8NI35 (Q8NI35 547-651): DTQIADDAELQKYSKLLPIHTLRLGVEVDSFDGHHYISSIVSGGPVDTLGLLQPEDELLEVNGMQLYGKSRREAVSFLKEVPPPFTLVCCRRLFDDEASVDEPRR

[5] = target: T2, MPP6, Q9NZW5
T2 sequence (Q9NZW5 125-219, limits assumed, looked up): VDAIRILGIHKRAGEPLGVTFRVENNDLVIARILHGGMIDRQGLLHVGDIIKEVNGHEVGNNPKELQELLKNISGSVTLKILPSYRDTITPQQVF

[6] = target: T3, GRIP1_2, Q9Y3R0
T3 sequence (Q9Y3R0 145-248, limits assumed, looked up): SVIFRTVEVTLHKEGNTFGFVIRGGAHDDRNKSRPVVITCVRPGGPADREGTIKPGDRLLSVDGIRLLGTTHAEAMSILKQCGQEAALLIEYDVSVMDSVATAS

[7] = target: GRIP2_6, Q9C0E4
Chain of GRIP2_6, Q9C0E4 (Q9C0E4 648-740): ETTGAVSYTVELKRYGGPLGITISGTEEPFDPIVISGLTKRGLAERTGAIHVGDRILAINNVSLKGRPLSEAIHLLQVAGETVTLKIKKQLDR

[8] = target: NHERF4_1, Q86UT5-2
Chain of NHERF4_1, Q86UT5-2 (Q86UT5 other isoform, or with tags, fused parts or gaps): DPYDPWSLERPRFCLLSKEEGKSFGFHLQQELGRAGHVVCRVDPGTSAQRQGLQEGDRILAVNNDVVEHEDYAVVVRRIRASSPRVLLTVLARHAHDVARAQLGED

[9] = target: MAGI3_2, Q5TCQ9
Chain of MAGI3_2, Q5TCQ9 (Q5TCQ9 398-503): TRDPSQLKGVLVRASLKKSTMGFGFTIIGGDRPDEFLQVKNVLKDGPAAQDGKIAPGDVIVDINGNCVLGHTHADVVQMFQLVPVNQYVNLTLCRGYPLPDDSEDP

[10] = target: T4, GRIP1_7, Q9Y3R0
T4 sequence (Q9Y3R0 999-1096, limits assumed, looked up): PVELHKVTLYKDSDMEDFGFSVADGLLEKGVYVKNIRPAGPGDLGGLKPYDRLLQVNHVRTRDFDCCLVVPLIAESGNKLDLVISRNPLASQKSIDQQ

[11] = target: Inadl_2, Q8NI35
Chain of Inadl_2, Q8NI35 (Q8NI35 238-335): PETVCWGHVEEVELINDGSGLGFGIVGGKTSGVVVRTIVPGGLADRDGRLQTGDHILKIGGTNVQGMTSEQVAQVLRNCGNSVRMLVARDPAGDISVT

[12] = target: GIPC2, Q8TF65
Chain of GIPC2, Q8TF65 (Q8TF65 112-203): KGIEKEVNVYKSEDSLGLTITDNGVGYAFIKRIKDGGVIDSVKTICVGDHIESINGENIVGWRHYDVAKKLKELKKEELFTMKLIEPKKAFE

[13] = target: T5, RAPGEF6, Q8TEU7
T5 sequence (Q8TEU7 525-625, limits assumed, looked up): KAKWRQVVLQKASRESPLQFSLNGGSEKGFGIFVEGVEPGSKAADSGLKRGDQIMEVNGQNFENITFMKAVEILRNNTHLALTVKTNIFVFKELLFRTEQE

[14] = target: FRMPD2_3, Q68DX3
Chain of FRMPD2_3, Q68DX3 (Q68DX3 1073-1166): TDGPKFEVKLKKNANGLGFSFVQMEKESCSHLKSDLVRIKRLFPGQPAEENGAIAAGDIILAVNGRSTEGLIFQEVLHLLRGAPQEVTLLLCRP

[15] = target: LDB3, O75112
Chain of LDB3, O75112 (O75112 1-94): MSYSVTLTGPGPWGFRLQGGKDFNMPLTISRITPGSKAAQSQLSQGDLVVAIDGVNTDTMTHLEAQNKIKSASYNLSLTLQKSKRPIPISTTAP

[16] = target: T6, DFNB31_2, Q9P202
T6 sequence (Q9P202 274-371, limits assumed, looked up): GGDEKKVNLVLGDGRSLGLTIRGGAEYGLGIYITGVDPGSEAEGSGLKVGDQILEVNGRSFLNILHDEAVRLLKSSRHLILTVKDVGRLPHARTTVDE

[17] = target: MAGI2_5, Q86UL8
Chain of MAGI2_5, Q86UL8 (Q86UL8 915-1017): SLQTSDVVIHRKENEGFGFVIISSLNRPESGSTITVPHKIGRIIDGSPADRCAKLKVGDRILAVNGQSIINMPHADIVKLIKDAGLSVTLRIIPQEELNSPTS

[18] = target: FRMPD4, Q14CM0
Chain of FRMPD4, Q14CM0 (Q14CM0 67-160): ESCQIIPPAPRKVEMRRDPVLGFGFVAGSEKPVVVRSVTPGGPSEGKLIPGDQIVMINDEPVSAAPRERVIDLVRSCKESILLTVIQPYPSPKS

[19] = target: MAGI2_3, Q86UL8
Chain of MAGI2_3, Q86UL8 (Q86UL8 600-682): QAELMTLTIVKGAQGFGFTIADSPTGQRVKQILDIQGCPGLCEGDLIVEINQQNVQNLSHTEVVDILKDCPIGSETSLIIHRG

[20] = target: T7, LRRC7, Q96NW7
T7 sequence (Q96NW7 1440-1537, limits assumed, looked up): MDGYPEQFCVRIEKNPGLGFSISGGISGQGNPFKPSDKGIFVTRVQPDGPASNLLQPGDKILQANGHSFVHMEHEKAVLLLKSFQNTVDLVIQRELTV

[21] = target: IL16_1, Q14005
Chain of IL16_1, Q14005 (Q14005 210-306): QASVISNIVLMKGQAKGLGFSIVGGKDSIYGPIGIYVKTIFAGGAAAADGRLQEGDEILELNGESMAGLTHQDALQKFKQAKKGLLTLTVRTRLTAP

[22] = target: T8, RADIL, Q96JH8
T8 sequence (Q96JH8 971-1071, limits assumed, looked up): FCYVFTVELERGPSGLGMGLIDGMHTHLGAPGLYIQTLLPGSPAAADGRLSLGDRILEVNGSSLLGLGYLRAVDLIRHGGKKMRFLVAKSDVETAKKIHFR

[23] = target: CASK, O14936
Chain of CASK, O14936 (O14936 487-570): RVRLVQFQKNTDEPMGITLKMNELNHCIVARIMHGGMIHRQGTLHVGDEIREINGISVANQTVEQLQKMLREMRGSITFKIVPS

[24] = target: MAST1, Q9Y2H9
Chain of MAST1, Q9Y2H9 (Q9Y2H9 962-1065): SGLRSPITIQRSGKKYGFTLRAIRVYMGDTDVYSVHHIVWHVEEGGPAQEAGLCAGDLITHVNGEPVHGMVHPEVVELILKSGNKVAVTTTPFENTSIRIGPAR

[25] = target: T9, MPDZ_5, O75970
T9 sequence (O75970 695-796, limits assumed, looked up): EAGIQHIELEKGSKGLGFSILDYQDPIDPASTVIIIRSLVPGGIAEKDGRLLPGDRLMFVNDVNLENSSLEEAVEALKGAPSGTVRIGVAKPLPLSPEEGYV

[26] = target: HTRA2, O43464
Chain of HTRA2, O43464 (O43464 355-458): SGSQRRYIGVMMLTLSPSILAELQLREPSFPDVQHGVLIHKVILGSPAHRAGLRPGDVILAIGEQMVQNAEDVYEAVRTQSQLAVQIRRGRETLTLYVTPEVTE

[27] = target: T10, MPDZ_10, O75970
T10 sequence (O75970 1624-1722, limits assumed, looked up): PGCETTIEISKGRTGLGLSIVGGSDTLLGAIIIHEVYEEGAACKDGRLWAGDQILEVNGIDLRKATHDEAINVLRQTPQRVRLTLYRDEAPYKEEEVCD

[28] = target: DLG4_3, P78352
Chain of DLG4_3, P78352 (P78352 306-403): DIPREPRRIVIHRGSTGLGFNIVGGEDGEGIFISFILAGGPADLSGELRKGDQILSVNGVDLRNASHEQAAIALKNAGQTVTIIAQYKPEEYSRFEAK

Chain of PTPN3, P26045 (P26045 505-587): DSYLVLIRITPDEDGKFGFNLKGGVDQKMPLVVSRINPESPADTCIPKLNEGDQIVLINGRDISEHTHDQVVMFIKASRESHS
Chain of PDZRN4_1, Q6ZMN7 (Q6ZMN7 213-318): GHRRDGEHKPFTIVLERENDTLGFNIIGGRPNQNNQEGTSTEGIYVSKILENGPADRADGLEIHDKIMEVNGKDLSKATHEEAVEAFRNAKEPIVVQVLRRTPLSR

Binder	pKd [1]	pKd [2]	pKd [3]	pKd [4]	pKd [5]	pKd [6]	pKd [7]	pKd [8]	pKd [9]	pKd [10]	pKd [11]	pKd [12]	pKd [13]	pKd [14]	pKd [15]	pKd [16]	pKd [17]	pKd [18]	pKd [19]	pKd [20]	further results
QRYPGNQTTC [CCL24, O00175]	below the threshold	3.66	below the threshold	below the threshold	below the threshold	below the threshold	below the threshold	below the threshold	below the threshold	below the threshold	below the threshold	below the threshold	3.58	below the threshold	below the threshold	below the threshold	below the threshold	below the threshold	below the threshold	below the threshold	pKd [21]: below the threshold; pKd [22]: below the threshold; pKd [23]: below the threshold; pKd [24]: 4.14; pKd [25]: below the threshold; pKd [26]: below the threshold; pKd [27]: below the threshold; pKd [28]: below the threshold
HYPASPDSWV [CTNND2, Q9UQB3]	4.14	5.07	below the threshold	below the threshold	below the threshold	below the threshold	below the threshold	below the threshold	3.86	3.75	below the threshold	3.61	below the threshold	below the threshold	3.74	below the threshold	below the threshold	3.76	3.58	4.97	pKd [21]: 4.24; pKd [22]: 5.02; pKd [23]: below the threshold; pKd [24]: 3.9; pKd [25]: below the threshold; pKd [26]: 4.12; pKd [27]: below the threshold; pKd [28]: below the threshold

Further lines, with some results ahead:

pKd [1]	pKd [2]	pKd [3]	pKd [4]	pKd [5]	pKd [6]	pKd [7]	pKd [8]	pKd [9]	pKd [10]	pKd [11]	pKd [12]	pKd [13]	pKd [14]	pKd [15]	pKd [16]	pKd [17]	pKd [18]	pKd [19]	pKd [20]	Binder	further results
below the threshold	3.49	4.85	below the threshold	4.01	below the threshold	3.79	below the threshold	below the threshold	3.56	3.51	3.83	below the threshold	3.58	3.9	below the threshold	below the threshold	3.86	below the threshold	3.75	VCMGDHWFDV [PRKN, O60260]	pKd [21]: below the threshold; pKd [22]: 4.44; pKd [23]: 4.83; pKd [24]: below the threshold; pKd [25]: below the threshold; pKd [26]: 3.96; pKd [27]: below the threshold; pKd [28]: below the threshold
below the threshold	below the threshold	below the threshold	below the threshold	below the threshold	below the threshold	below the threshold	below the threshold	4.46	below the threshold	below the threshold	3.67	below the threshold	below the threshold	below the threshold	below the threshold	3.78	below the threshold	below the threshold	below the threshold	KLQNPNQSVV [TYRP1, P17643]	pKd [21]: 3.94; pKd [22]: 4.05; pKd [23]: below the threshold; pKd [24]: 4.37; pKd [25]: below the threshold; pKd [26]: below the threshold; pKd [27]: 3.54; pKd [28]: below the threshold
